Results as given in publication PMC5443842, “The Effect of Two Amino acid Residue Substitutions via RNA Editing on Dark-operative Protochlorophyllide Oxidoreductase in the Black Pine Chloroplasts” (Scientific Reports, 2017).

Target: T1, Strep-ChlN from Leptolyngbya boryana, expressed in E. coli (Leptolyngbya boryana, UniProt Q04607 1-467)
T1 construct: ChlN, subunit of DPOR (NB protein), Leptolyngbya boryana; Co-expressed with each ChlB variant; To my knowledge pASK-IBA5plus adds an N-terminal Strep-tag II; source: E. coli (chlN-chlB fragments in pASK-IBA5plus), in soluble fraction
Test: pull-down; ChlB variants co-expressed with Strep-ChlN in E. coli; soluble fractions on a Strep-Tactin column in an anaerobic chamber; affinity-purified proteins on SDS-PAGE stained with Coomassie Brilliant Blue, yields quantitated
Details: partners not purified

T1 sequence (Q04607 whole entry, the tested form may be a part): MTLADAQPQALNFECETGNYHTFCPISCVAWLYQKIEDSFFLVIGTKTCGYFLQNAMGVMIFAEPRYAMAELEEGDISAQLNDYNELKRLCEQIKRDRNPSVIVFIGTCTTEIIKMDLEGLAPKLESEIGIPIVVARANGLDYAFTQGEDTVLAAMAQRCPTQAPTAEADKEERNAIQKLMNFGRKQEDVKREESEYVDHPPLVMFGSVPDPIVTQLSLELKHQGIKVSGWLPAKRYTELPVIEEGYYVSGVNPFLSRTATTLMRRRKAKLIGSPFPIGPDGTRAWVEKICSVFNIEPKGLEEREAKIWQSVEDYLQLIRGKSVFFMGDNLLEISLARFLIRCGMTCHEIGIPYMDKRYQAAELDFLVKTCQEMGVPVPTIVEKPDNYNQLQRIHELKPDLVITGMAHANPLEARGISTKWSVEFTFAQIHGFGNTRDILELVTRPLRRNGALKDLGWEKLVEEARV

stoichiometry N: ~1
B1: wild-type ChlB from Leptolyngbya boryana, expressed in E. coli (natural protein, UniProt P95463 1-508, looked up)
chain: MKLAYWMYAGPAHIGTLRIASSFKNVHAIMHAPLGDDYFNVMRSMLERERDYTPVTTSVVDRHVLARGSQEKVVDNITRKDAEEHPDLIVLTPTCTSSILQEDLQNFVERAQLEAKGDVMLADVNHYRVNELQAADRTLQQIVQFYIAKARKQGNLVTEKTEKPSVNIFGMTTLGFHNNHDATELKKLMSDLGIEVNAIVPAGASVHELKSLPRAWFNLVPYRETGLLAAEFLQQEFNMPYVDITPIGIVETARCIRKIQQVINAQGANVDYEPFIDQQTRFVSQAAWFSRSIDCQNLTGKKAVVFGDNTHAAALTKILAREMGIHVLLAGTYCKYDEAWFREQVSEYCDDVLVSDDNGQIADAIARLEPAAIFGTQMERHVGKRLDIPCGVIAAPIHIQNFPVGYKPFVGYEGSNQIVDLIYNSFTLGMEDHLLEIFGGHDTKEVITKSVSADSDLNWSKDGLAELNRIPGFVRGKVKRNTEKFARDRNITQITAEVLYAAKEAVGA
notes: ChlB, subunit of DPOR (NB protein), Leptolyngbya boryana; also called WT ChlB; WT control; source: E. coli (pHANB2), in soluble fraction
